# Test results taken from paper PMC6547619 (2019).
# B1: BAG3-H2L4 (antibody, V domains shown)
# VH: QVQLVQSGAEVKKPGASVKVSCKASGFNIKDTYMYWVRQAPGQGLEWMGGVDPANGNTRYDPKFQGRVTLTRDTSTSTVYMELSSLRSEDTAVYYCGRDGAMDYWGQGTLVTVSS
# VL: DIVMTQSPDSLAVSLGERATMSCKSSQSLLYSSNQKNYLAWHQQKPGQPPKLLIYWASTRESGVPDRFSGSGSGTDFTLTISSLQAEDLAIYYCQQYYTYPLTFGAGTKLEIK
# B2: E. coli rBAG3 (Abcam) (natural protein)
# chain: not shown
# B3: BAG3-H4L2 (antibody, V domains shown)
# VH: EVQLVQSGAEVKKPGATVKISCKVSGFNIKDTYMYWVQQAPGKGLEWMGGVDPANGNTRYDPKFQGRVTITADTSTDTAYMELSSLRSEDTAVYYCARDGAMDYWGQGTLVTVSS
# VL: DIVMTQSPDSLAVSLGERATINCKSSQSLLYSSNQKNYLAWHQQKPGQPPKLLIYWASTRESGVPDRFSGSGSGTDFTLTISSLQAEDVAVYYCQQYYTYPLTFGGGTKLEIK
# Columns and labels:
# Assay in all cases: SPR
# [1] = biological target: B2
# [2] = biological target: BAG3-H2L2
# [3] = biological target: BAG3-H3L2
# [4] = biological target: BAG3-H2L3
# [5] = biological target: BAG3-H1L3
# [6] = biological target: BAG3-H1L4
# [7] = biological target: BAG3-H1L2
# [8] = biological target: BAG3-H4L4
# [9] = biological target: BAG3-H3L4
# [10] = biological target: BAG3-H3L3
# [11] = biological target: BAG3-H4L3
Binder,Kd [1],Kd [2],Kd [3],Kd [4],Kd [5],Kd [6],Kd [7],Kd [8],Kd [9],Kd [10],Kd [11]
B1,2.04 nM,,,,,,,,,,
B2,,2.63 nM,1.78 nM,1.98 nM,2.83 nM,2.34 nM,2.84 nM,1.72 nM,1.7 nM,1.61 nM,1.98 nM
B3,2.02 nM,,,,,,,,,,
